Source: the nanobody polyreactivity screen of Harvey et al. (2022)

Assay: yeast display, Sf9 membrane polyspecificity reagent, FACS + sequencing; frameworks hold sequencing errors
Method in brief: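 Nanobodies from a synthetic yeast display library (Saccharomyces cerevisiae BJ5465), induced 36–48 hours with galactose, were stained 1 hour at 4 °C with 10% biotinylated, detergent-solubilized Sf9 membrane reagent, enriched on streptavidin microbeads, then FACS-sorted. Anti-HA (expression) and streptavidin (reagent binding) fluorescence set low and high (top ~1%) gates. Polyreactivity labels come from the gate of origin. Genes were colony-PCR amplified, MiSeq 2 × 250 sequenced and filtered by CDR length.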

Row | Sequence | polyreactivity (PSR sort gate)
1 | QVQLVESGGGLVQAGGSLRLSCAASGIIFRANAMGWYRQAPGKERELDAAISGRGSSTTYADSVKGRFTISRDNAKNTVYLQINSLKPEDTAVYYCAARLPYNNQVPGYYWGQGTQVTGSS | high polyreactivity
2 | QVQLVESGGGLVQAGGSLRLSCAASGIIFRANAMGWYRQAPGKERELVAAISGRGSSTTYADSVKGRFTISRDNAKNTVYLQMNSLKPEDTAVYYCAAAGWSARGYNYWGQGTQVTVSS | high polyreactivity
3 | QVQLVESGGGLVQAGGSLRLSCAASGIIFRANAMGWYRQAPGKERELVAAISGRGSSTTYADSVKGRFTISRDNAKNTVYLQMNSLKPEDTAVYYCAADTWYPGYYAYDYWGQGTQVTVSS | high polyreactivity
4 | QVQLVESGGGLVQAGGSLRLSCAASGIIFRAYAMGWYRPAPGKERELVAAISRSGGSTYYADSVKGRFTISRDNAKNTVYLQMNSLKQEDTAVYYCAADTVWYLYYYWGQGSQVTVSS | high polyreactivity
5 | QVQLVESGGGLVQAGGSLRLSCAASGIIFRFYSMGWYRQAPGKERELLAVITSRSDSTYYADSVKGRFTISRDNAKNTVYLQMNSLKPEDTAVYYCNARYPWYYRYSTYDYWGQGTQVTVSS | high polyreactivity
6 | QVQLVESGGGLVQAGGSLRLSCAASGIIFRGNVMGWYRQAPGKERELVAAISGSGGRTYYADSVKGRFTISRDNAKNTVYLQMNSLKPEVTAVYYCNADKAIRYDYWGQGPQVTVSS | high polyreactivity
7 | QVQLVESGGGLVQAGGSLRLSCAASGIIFRKNAMGWYRQAPGKERELVAAISSTGASTNYADSVKGRFTISRDNAKNTVYLQMNSLKPEDTAVYYCAASRTRYWKYDYWGQGTQVTVSS | high polyreactivity
8 | QVQLVESGGGLVQAGGSLRLSCAASGIIFRNNAMGWYRQAPGKEREFVARISKRGGSTYYADSVKGRFTISRDNAKNTVYLQQNSLKPEDTAVYYCAKGYGSGSYLYDYWGQGTQVTVSS | high polyreactivity
9 | QVQLVESGGGLVQAGGSLRLSCAASGIIFRPYAMGWYRQAPGKERELVAAISRGGRTKYADSVKGRFTISRDNAKNTVYLQMNSLKPEDTAVYYCAAQFRFTRLVGVAAEYDYGGQGTQVTVSS | low polyreactivity
10 | QVQLVESGGGLVQAGGSLRLSCAASGIIFRPYAMGWYRQAPGKERELVAAITWSVTSTYYADSVKGRFTISRDNAKNTVYLQMNSLKPEDTAVYYCAATCSYGVSWYEYWGQGTQVTVSS | high polyreactivity
11 | QVQLVESGGGLVQAGGSLRLSCAASGIIFRRYARGWYRQAPGKERELVAAITRGGITYYADSVKGRFTISRDNAKNTVYLQMNSLKPEDTAVYYCAATYSGTYSLGGGYDYWGQGTQVTVSS | low polyreactivity
12 | QVQLVESGGGLVQAGGSLRLSCAASGIIFRSYAMGWYRQAPGKERELVAGISRRGGSTYYADSVKGRFTISRDNAKNTVYLQMNSLKPEDTAVYYCAKEVAYKPTGYDYWGQGTQVTVSS | high polyreactivity
13 | QVQLVESGGGLVQAGGSLRLSCAASGIIFRVYTMGWYRQAPGKERELVAGISSGDSTSYADSVKGRFTISRDNAKNTVYLQMNSLKPEDTEVYYCNADGKAGGDYDYWGQGTQVTVSS | low polyreactivity
14 | QVQLVESGGGLVQAGGSLRLSCAASGIIFRWNAMGSYRQAPGKERELVAAITRSGGSTYYADSVKGRFTISRDNAKNTVYLQMNSLKPEDTAVYYCAAEYYAPRYKFDYWGQGTQVTVSS | high polyreactivity
15 | QVQLVESGGGLVQAGGSLRLSCAASGIIFRWYAMGWYRQAPGKERELLAAITSSGGRTYYADSVKGRFTISRDNAKNTVYFQMNSLKPEDSAVYYCAASYYIVGWDPYDYWGQGTQVTVSS | high polyreactivity
16 | QVQLVESGGGLVQAGGSLRLSCAASGIIFRWYTKGWSRPAPGKERELVAAINYSSGDTYADSEKGRFTISRDNAKNTVYLQMNILKPEDTAVYYCAAEDPEYATYWYKYGYWGQGTQVNVSS | low polyreactivity
17 | QVQLVESGGGLVQAGGSLRLSCAASGIIFRYAMGWYRQAPGKERELVAAIRKSDGSTYYADSVKGRFTISRDNAKNTVYLQMNSLKPEDTAVYYCNAVTVGLYDYWGQGTQVTVSS | high polyreactivity
18 | QVQLVESGGGLVQAGGSLRLSCAASGIIFRYAMGWYRQSPGKERELVARITVGSTYYADSVKGRFTISRDNAKNTVYLQMNSLKPEDTAVYYCNKDSGEDDRWPYDYWGQGTQVTVSS | low polyreactivity
19 | QVQLVESGGGLVQAGGSLRLSCAASGIIFRYYAMGWYRQAPGKERELVAAISRSGARTYYADTVKGRFTISRDNAKNTVFLQRNSLKPEDTAVYYCATDPTSGRFYYWGQGTQVTVSS | high polyreactivity
20 | QVQLVESGGGLVQAGGSLRLSCAASGIIFRYYTMGWYRQAPGKERELVAAISWGGGSTYYADSVKGRFTISRDYAKNTVYLQMNSLKPEDTAVYYCAAEGLTYYNYREWLYYYWGQGTQVTVSS | high polyreactivity
21 | QVQLVESGGGLVQAGGSLRLSCAASGIIFSEYAMGWNRKAPGKERELVAAISKSGGRTYYADSVKGRFTISRDNAKNTVYLQMNSLKPEDTAVYYCAARHAPILGDHGMKYWGQGTQVTVSS | high polyreactivity
22 | QVQLVESGGGLVQAGGSLRLSCAASGIIFSEYAMGWYRQAPGKERELVAAISKSGGRTYYADSVKGRFTISRDNAKNTVYLQMNSLKPEDTAVYYCAARHAPILGDHGDYDYWGQGTQVTVSS | high polyreactivity

Row | Sequence | polyreactivity (PSR sort gate)
23 | QVQLVESGGGLVQAGGSLRLSCAASGIIFSFYAMGWYRQAPGKERELVADITLSGGRTYYADSVKGRFTISRDNAKNTVYLQMNSLKPEDTAVYYCNADTYERGDYWGQGTQVTVSS | high polyreactivity
24 | QVQLVESGGGLVQAGGSLRLSCAASGIIFSGNAMGWYRQAPGKERELVAAITRGGRTYYADSVKGRFTISRDNAKNTVFFQFNSLKPEDTAVYYCGAGYPYSYREYYYWGQGSQVTVSS | high polyreactivity
25 | QVQLVESGGGLVQAGGSLRLSCAASGIIFSGNAMGWYRQAPGKERELVAAITRGGRTYYADSVKGRFTISRDNAKNTVYLQMNSLKPEDTAVYYCAAGYPYSYRDYYYWGQGTQVTVSS | high polyreactivity
26 | QVQLVESGGGLVQAGGSLRLSCAASGIIFSGYAMGWYRQAPGKERELVAVISSSGGGTYYADSVKGRFTISRDKAKNTVYLQMNSLIPEDTAVYYCAARGREAIHGYWGQGTQVTLSS | high polyreactivity
27 | QVQLVESGGGLVQAGGSLRLSCAASGIIFSGYVMGWYRQAPGKERELVAAIRWNGGNTYYADSVKGRFTISRDNAKNTVYLQMNSLKPEDTAVYYCAGRVRRPYSSLDYWGQGSQVTVSS | high polyreactivity
28 | QVQLVESGGGLVQAGGSLRLSCAASGIIFSIYVMGWYRQAPGKERELVAAISSNGGSTYYADSVKGRFTISRDNAKNTVYLQMNSLKPEDTAVYYCAAVSRSHYYYWGQGTQVTVSS | high polyreactivity
29 | QVQLVESGGGLVQAGGSLRLSCAASGIIFSKYAMGWYRQAPGKERELVARISWRGGDTYYADSVKGRFTISRDNAKNTVYLQMNSLKPEDTAVYYCNARIWGRYFSYTRFDYWGQGTQVTVSS | high polyreactivity
30 | QVQLVESGGGLVQAGGSLRLSCAASGIIFSLKTMGGYRQAPGKERELVAAISSSGGSTYYADSVKGRFTISRDNAKNCVYVQMNSLKPEDTAVYYCARRYAPNTSLTFYYWGQGTQVTVSS | low polyreactivity
31 | QVQLVESGGGLVQAGGSLRLSCAASGIIFSPYAMGWYRQAPGKERELVAAINFSTGRTYYADSVKGRFTISRDNAKNTVYLQMNSLKPEDTAVYYCAAGKYPYVFRGGYDYWGQGTQVTVSS | low polyreactivity
32 | QVQLVESGGGLVQAGGSLRLSCAASGIIFSQYAMGWYRQAPGKERELVAGITRSGGSTYYADSVKGRFSISRDNAKNTVYLQMNSLKPDDTAVYYCAAVQRYEYGYWGQGTQVTVSS | high polyreactivity
33 | QVQLVESGGGLVQAGGSLRLSCAASGIIFSRYAMGWYRPAPGKVRELVASITGRVGSTYYADSVKGPFTISRDNAKNTVYLQMNRLNPEDTAVYYCAADYVYKFDYWGHGTQVTVSS | low polyreactivity
34 | QVQLVESGGGLVQAGGSLRLSCAASGIIFSSYAMGWYRQAPGKERELVAAIDWRGDSTYYADSVKGRFTISRDNAKNTVYLQMNSLKPEDTAVYYCAADGSTYDSVRYGYWGQGTQVTVSS | low polyreactivity
35 | QVQLVESGGGLVQAGGSLRLSCAASGIIFSSYAMGWYRQAPGKERELVAAITSGGNTNYADSVKGRFTISRDNAKNTVYLQMNSLKTEDISVYYCNADTSFVWLAWHQYGFGYWGQGTQVTLSS | low polyreactivity
36 | QVQLVESGGGLVQAGGSLRLSCAASGIIFSSYAMGWYRQAPGKERELVAAITYNGGRTYYADSVKGRFTISRDNAKNTVYLQMNSVKPEDTAVYYCAAERYPYGVTYSKLDYWGQGTQVTVSS | high polyreactivity
37 | QVQLVESGGGLVQAGGSLRLSCAASGIIFSVNAMGWYRQAPGTERELVAAISSSGGDTYYADSVKGRFTISRDNAKNTVYLQMNSLKPEDTAVYYCAASVEQPGLAYDYWGQGTQVTVSS | low polyreactivity
38 | QVQLVESGGGLVQAGGSLRLSCAASGIIFSYNAMGWYRQAPGKERELVAAITSGGITNYADSVKGRFTISRDNAKNTVYLQMNSLKPEDTAVYYCAAEVWRYYRRDYWGQGTQVTVSS | low polyreactivity
39 | QVQLVESGGGLVQAGGSLRLSCAASGIIFSYYDMGWYRQAPGKERELVATITGNGGSTYYADSVKGRFTISRDNAKNTVYLQMNSLKPEDTAVYYCAAQTTVYIYDYWGQGTQVTVSS | low polyreactivity
40 | QVQLVESGGGLVQAGGSLRLSCAASGIIFTDNAMGWYRQAPGKERELVATISWSTDNTYYADSVKGRFTISRDNAKNTVYLQMNSLKPEDTAVYYCAAEEYYAYWYQYDYWGQGTQVTVSS | low polyreactivity
41 | QVQLVESGGGLVQAGGSLRLSCAASGIIFTDYAMGWYRQAPGKERELVAAISSGGGSTYYADSVKGRFTNSRDYAKNTVYLQMNSLKPEDTAVYYCAAQTSGSYGFDHWGQGTQVTVSS | high polyreactivity
42 | QVQLVESGGGLVQAGGSLRLSCAASGIIFTHNAMGWYRQAPGKERELVAAISWSGGSTYYADSVKGRFTISRDNAKNTVYLQMNSLKPEDTAVYYCNAKFKQSYAQVAKFNSWGQGTQVTVSS | low polyreactivity
43 | QVQLVESGGGLVQAGGSLRLSCAASGIIFTLYAMGWYRQAPGKERELVATISTGGGTYYADSVKGRFTISRDNAKNTVYLQMNSLKPEDTAVYYCAAKRYWNFRYDYWGQGTQVTVSS | high polyreactivity
